Laboratory results published in the supplement of paper PMC10567573.

B1: TMEM106C (parent)
chain: FTGRDSITCLTCQGTGYIPTEQVN

Variants of: B1
Assay: protein stability index of a GFP-peptide fusion (GPS, HEK-293T) (PSI 1-6); higher = more stable
Conditions: c terminus: a fixed tail appended
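Also: lentivirally expressed fusions sorted by FACS into six bins by GFP to DsRed ratio, PSI derived from sequencing read proportions per bin multiplied by bin number.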

Protein stability index of substitutions, site by site:
C9: L 2.04 | D 3.16 | V 1.9 | M 2.88 | S 2.28 | G 1.75 | R 1.52 | H 1.73 | T 1.82 | N 1.94 | I 3.25 | E 2.73 | Q 1.68 | F 2.86 | A 2 | P 2.1 | K 2.17
D5: A 1.94 | Y 3.35 | V 4.33 | H 2.82 | T 2.15 | K 1.84 | Q 2.17 | P 2.12 | F 3 | I 2.65 | R 1.87 | N 1.56 | E 1.96 | W 3.14 | S 2.29 | C 3.35 | L 2.66 | G 1.49 | M 2.73
R4: T 1.87 | W 2.62 | I 2.48 | V 1.7 | C 2.32 | A 1.86 | E 2.59 | M 2.33 | N 2.8 | Q 2.46 | D 3.14 | H 1.98 | Y 1.65 | F 2.52 | S 3.04 | G 1.74 | K 2.12 | L 1.81 | P 2.41
T8: K 1.79 | F 3.56 | Y 2.15 | L 2 | Q 2.37 | V 2.09 | S 2.4 | D 2.37 | W 2.22 | C 2.11 | E 1.84 | I 1.82 | N 1.92 | M 2.4 | H 2.28 | P 1.9 | R 1.41 | A 2.91
I7: W 3.32 | Q 2.5 | F 1.6 | S 2.39 | L 2.07 | H 2.09 | D 2.83 | N 2.15 | M 1.76 | T 2.78 | R 2.15 | E 2.89 | C 1.73 | V 1.77 | G 2.16 | P 2.23 | K 2.32 | A 2.22 | Y 2.68
G3: C 1.89 | R 2.84 | L 3.45 | E 2.7 | N 2.12 | P 2.76 | T 2.04 | M 2.81 | I 2.33 | Y 2.45 | V 2.99 | S 1.46 | H 1.7 | F 1.7 | K 3.49 | A 2.79 | Q 2.09 | W 1.48 | D 1.85
T2: S 2.07 | R 4.04 | G 2.84 | K 4.3 | F 3.19 | A 2.81 | P 2.82 | I 1.97 | D 4.1 | Y 3.3 | V 2.87 | W 2.31 | N 3.32 | H 3.35 | M 2.95 | C 2.63 | E 4.48 | L 2.61 | Q 2.91
F1: E 4.7 | Y 1.99 | I 3.94 | G 4.15 | Q 4.65 | H 4.52 | N 4.48 | K 4.29 | W 4.06 | T 4.76 | S 4.33 | V 4.43 | C 3.92 | L 4.16 | R 4.35 | D 4.88 | A 4.7 | M 4.77 | P 4.63
S6: R 2.45 | L 2.16 | E 2.73 | H 2.43 | Y 2.04 | T 2.43 | G 1.9 | P 2.18 | F 2.38 | V 2.5 | I 2.92 | A 2.27 | Q 2.05 | M 1.79 | N 2.58 | D 2.58 | C 1.99 | K 2.34
